Data taken from article PMC9006656.
Each block holds one substance with its values, some of them ahead of it.

Columns and labels:
[1] = biological target: GST-tagged human FcRn-β2m (human) (UniProt P55899)
[2] = biological target: wild-type human IgG1 Fc displayed on the CHO cell surface (human); test: flow cytometry on cells; Fc variants displayed on CHO-T cells as monoclonal populations; stained with monomeric FcγRIIIa V158 on fluorescent streptavidin (50 nM in Fig. 7A) in flow buffer at pH 6.5; percent of cells binding
[3] = biological target: hu4D5 full-length human IgG1 antibody with wild-type Fc (human); test: BLI; same FAB2G experiment at pH 6.5, steady state analysis: equilibrium responses fit to a Langmuir isotherm; apparent
[4] = biological target: hu4D5 full-length human IgG1 antibody with acid-Fc (human); test: as above
[5] = biological target: hu4D5 full-length human IgG1 antibody with wild-type Fc (human); test: BLI; antibody captured on anti-CH1 FAB2G tips; FcγRIIIa V158 (62.5-2000 nM) or F158 (156-5000 nM) in solution, pH 7.4; 1:1 model, full association and initial 5 s of dissociation; Kd = koff/kon; observed values
[6] = biological target: hu4D5 full-length human IgG1 antibody with acid-Fc (human); test: as above
[7] = biological target: hu4D5 full-length human IgG1 antibody with wild-type Fc (human); test: BLI; antibody captured on anti-CH1 FAB2G tips; FcγRIIIa V158 (62.5-2000 nM) or F158 (156-5000 nM) in solution, pH 6.5; 1:1 model, full association and initial 5 s of dissociation; Kd = koff/kon; observed values
[8] = biological target: hu4D5 full-length human IgG1 antibody with acid-Fc (human); test: as above
[9] = biological target: hu4D5 full-length human IgG1 antibody with wild-type Fc (human); test: BLI; same FAB2G experiment at pH 7.4, steady state analysis: equilibrium responses fit to a Langmuir isotherm; apparent
[10] = biological target: hu4D5 full-length human IgG1 antibody with acid-Fc (human); test: as above

Sequence of wild-type human IgG1 Fc displayed on the CHO cell surface (human) (P01857 1-350): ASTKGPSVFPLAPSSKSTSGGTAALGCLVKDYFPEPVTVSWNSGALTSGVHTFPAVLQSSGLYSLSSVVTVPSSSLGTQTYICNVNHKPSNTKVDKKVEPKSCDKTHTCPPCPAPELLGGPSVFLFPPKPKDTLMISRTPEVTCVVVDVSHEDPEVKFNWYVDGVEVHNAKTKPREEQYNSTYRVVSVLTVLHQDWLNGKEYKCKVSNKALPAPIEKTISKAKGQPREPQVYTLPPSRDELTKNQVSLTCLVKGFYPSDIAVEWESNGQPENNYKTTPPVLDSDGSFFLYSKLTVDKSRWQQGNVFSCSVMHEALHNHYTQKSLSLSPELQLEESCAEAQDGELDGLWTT

- serum beta elimination half-life (t1/2) in homozygous Tg32 mice expressing human FcRn, 2 mg/kg intraperitoneally [1]: 209 h
Substance: hu4D5 full-length human IgG1 antibody with wild-type Fc

- ratio of the percent of cells binding at pH 6.5 versus the percent binding at pH 7.4 [2]: 1
Substance: biotinylated FcγRIIIa (allele V158) monomerically bound to fluorescent streptavidin (receptor)

- Kd [3]: 418 nM
- Kd [4]: 603 nM
- Kd [5]: 484 nM
- koff [5]: 0.134 s⁻¹
- kon [5]: 280000 M⁻¹ s⁻¹
- Kd [6]: 909 nM
- koff [6]: 0.226 s⁻¹
- kon [6]: 250000 M⁻¹ s⁻¹
- Kd [7]: 401 nM
- koff [7]: 0.119 s⁻¹
- kon [7]: 300000 M⁻¹ s⁻¹
- Kd [8]: 538 nM
- koff [8]: 0.177 s⁻¹
- kon [8]: 340000 M⁻¹ s⁻¹
- Kd [9]: 513 nM
- Kd [10]: 1090 nM
Substance: human FcγRIIIa F158, AVI and His tagged, biotinylated (from UniProt P08637 17-254) (receptor)

- serum beta elimination half-life (t1/2) in homozygous Tg32 mice expressing human FcRn, increase as compared to wild-type [1]: 1.4 fold
Substance: hu4D5 human IgG1 antibody with the M252Y/S254T/T256E (YTE) substitutions
